From the supplement of paper PMC6757056
± gives the standard deviation of the averaged measurements.

B1: library; a variant is named by its letters at N, in order (parent)
chain: GCUGUCACCGGUGUAUUACCCUAGUGGUCGACCGGUCUGAUGAGUCUNNNNNNAGACGAAACAGC

How the values were obtained:
hypoxanthine [1] = variants of: B1; experiment: normalized RNA/DNA level with ligand (relative to sTRSVctl = 100) (log10 (% of sTRSVctl)); ligand: hypoxanthine (xanthine aptamer); higher = less ribozyme self-cleavage, higher mRNA level; settings: ligand concentration (+) RNA-Seq: 5 mM, HEK293T, reporter: mCherry (pCS4076), ligand present: yes
How it was run: (§1)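 Library plasmids encoding reporter-linked ribozyme switches (mCherry, or eGFP for some folinic acid experiments) were transfected into HEK293T at 4 µg per 6-well well. Ligand, when used, was added 1 h before transfection. Total RNA was extracted with EDTA 72 h later, then reverse-transcribed, amplified, barcoded and sequenced. RNA level was RNA reads over DNA reads, divided by a spiked-in non-cleaving control (or the top 25 sequences), ×100, log10; only sequences with ≥100 DNA reads were kept.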

hypoxanthine [2] = variants of: B1; experiment: normalized RNA/DNA level without ligand (relative to sTRSVctl = 100) (log10 (% of sTRSVctl)); ligand: hypoxanthine (xanthine aptamer); higher = less ribozyme self-cleavage, higher mRNA level; settings: HEK293T, reporter: mCherry (pCS4076), ligand present: no
How it was run: as §1

Row | Variant | normalized RNA/DNA level with ligand (log10) (hypoxanthine [1]) | normalized RNA/DNA level without ligand (log10) (hypoxanthine [2])
1 | GCUGUCACCGGUGUAUUACCCUAGUGGUCGACCGGUCUGAUGAGUCUUUCAUAAGACGAAACAGC [UUCAUA] | 1.88 ± 0.019 | 1.8411 ± 0.0016
2 | GCUGUCACCGGUGUAUUACCCUAGUGGUCGACCGGUCUGAUGAGUCUUUCAUGAGACGAAACAGC [UUCAUG] | 1.95 ± 0.029 | 1.78 ± 0.056
3 | GCUGUCACCGGUGUAUUACCCUAGUGGUCGACCGGUCUGAUGAGUCUUUCAUUAGACGAAACAGC [UUCAUU] | 1.95 ± 0.025 | 1.91 ± 0.071
4 | GCUGUCACCGGUGUAUUACCCUAGUGGUCGACCGGUCUGAUGAGUCUGUCAUAAGACGAAACAGC [GUCAUA] | 1.957 ± 0.013 | 1.806 ± 0.013
5 | GCUGUCACCGGUGUAUUACCCUAGUGGUCGACCGGUCUGAUGAGUCUGUCAUUAGACGAAACAGC [GUCAUU] | 1.97 ± 0.056 | 1.916 ± 0.015
6 | GCUGUCACCGGUGUAUUACCCUAGUGGUCGACCGGUCUGAUGAGUCUAUCACGAGACGAAACAGC [AUCACG] | 1.933 ± 0.0027 | 1.554 ± 0.015
7 | GCUGUCACCGGUGUAUUACCCUAGUGGUCGACCGGUCUGAUGAGUCUAUCACUAGACGAAACAGC [AUCACU] | 1.98 ± 0.024 | 1.884 ± 0.0058
8 | GCUGUCACCGGUGUAUUACCCUAGUGGUCGACCGGUCUGAUGAGUCUAUCACCAGACGAAACAGC [AUCACC] | 1.98 ± 0.029 | 1.953 ± 0.011
9 | GCUGUCACCGGUGUAUUACCCUAGUGGUCGACCGGUCUGAUGAGUCUGUCACCAGACGAAACAGC [GUCACC] | 1.92 ± 0.059 | 1.9 ± 0.079
10 | GCUGUCACCGGUGUAUUACCCUAGUGGUCGACCGGUCUGAUGAGUCUGUCACGAGACGAAACAGC [GUCACG] | 1.9 ± 0.025 | 1.54 ± 0.055
11 | GCUGUCACCGGUGUAUUACCCUAGUGGUCGACCGGUCUGAUGAGUCUGUCACUAGACGAAACAGC [GUCACU] | 1.977 ± 0.014 | 1.91 ± 0.041
12 | GCUGUCACCGGUGUAUUACCCUAGUGGUCGACCGGUCUGAUGAGUCUCUCACGAGACGAAACAGC [CUCACG] | 1.93 ± 0.024 | 1.913 ± 0.0027
13 | GCUGUCACCGGUGUAUUACCCUAGUGGUCGACCGGUCUGAUGAGUCUUUCAGAAGACGAAACAGC [UUCAGA] | 1.96 ± 0.037 | 1.823 ± 0.0059
14 | GCUGUCACCGGUGUAUUACCCUAGUGGUCGACCGGUCUGAUGAGUCUUUCAGUAGACGAAACAGC [UUCAGU] | 1.947 ± 0.013 | 1.83 ± 0.036
15 | GCUGUCACCGGUGUAUUACCCUAGUGGUCGACCGGUCUGAUGAGUCUUUCAGGAGACGAAACAGC [UUCAGG] | 1.92 ± 0.025 | 1.79 ± 0.053
16 | GCUGUCACCGGUGUAUUACCCUAGUGGUCGACCGGUCUGAUGAGUCUUUCAGCAGACGAAACAGC [UUCAGC] | 1.94 ± 0.026 | 1.93 ± 0.02
17 | GCUGUCACCGGUGUAUUACCCUAGUGGUCGACCGGUCUGAUGAGUCUCUCAUUAGACGAAACAGC [CUCAUU] | 1.99 ± 0.067 | 2.01 ± 0.08
18 | GCUGUCACCGGUGUAUUACCCUAGUGGUCGACCGGUCUGAUGAGUCUCUCAUGAGACGAAACAGC [CUCAUG] | 1.96 ± 0.042 | 1.91 ± 0.024
19 | GCUGUCACCGGUGUAUUACCCUAGUGGUCGACCGGUCUGAUGAGUCUAUCAGCAGACGAAACAGC [AUCAGC] | 1.94 ± 0.024 | 1.95 ± 0.047
20 | GCUGUCACCGGUGUAUUACCCUAGUGGUCGACCGGUCUGAUGAGUCUAUCCCCAGACGAAACAGC [AUCCCC] | 1.93 ± 0.025 | 1.87 ± 0.036
21 | GCUGUCACCGGUGUAUUACCCUAGUGGUCGACCGGUCUGAUGAGUCUAUCCCAAGACGAAACAGC [AUCCCA] | 1.92 ± 0.03 | 1.88 ± 0.02

Row | Variant | normalized RNA/DNA level with ligand (log10) (hypoxanthine [1]) | normalized RNA/DNA level without ligand (log10) (hypoxanthine [2])
22 | GCUGUCACCGGUGUAUUACCCUAGUGGUCGACCGGUCUGAUGAGUCUAUCCACAGACGAAACAGC [AUCCAC] | 1.95 ± 0.056 | 1.8068 ± 0.00014
23 | GCUGUCACCGGUGUAUUACCCUAGUGGUCGACCGGUCUGAUGAGUCUGUCCCAAGACGAAACAGC [GUCCCA] | 1.94 ± 0.02 | 1.9 ± 0.041
24 | GCUGUCACCGGUGUAUUACCCUAGUGGUCGACCGGUCUGAUGAGUCUGUCCCCAGACGAAACAGC [GUCCCC] | 1.907 ± 0.017 | 1.825 ± 0.01
25 | GCUGUCACCGGUGUAUUACCCUAGUGGUCGACCGGUCUGAUGAGUCUUUCCCCAGACGAAACAGC [UUCCCC] | 1.93 ± 0.043 | 1.8846 ± 0.0013
26 | GCUGUCACCGGUGUAUUACCCUAGUGGUCGACCGGUCUGAUGAGUCUUUCCCAAGACGAAACAGC [UUCCCA] | 1.92 ± 0.032 | 1.91 ± 0.037
27 | GCUGUCACCGGUGUAUUACCCUAGUGGUCGACCGGUCUGAUGAGUCUCUCAGUAGACGAAACAGC [CUCAGU] | 1.97 ± 0.061 | 1.89 ± 0.079
28 | GCUGUCACCGGUGUAUUACCCUAGUGGUCGACCGGUCUGAUGAGUCUCUCAGAAGACGAAACAGC [CUCAGA] | 1.965 ± 0.012 | 1.8539 ± 0.00065
29 | GCUGUCACCGGUGUAUUACCCUAGUGGUCGACCGGUCUGAUGAGUCUCUCAGCAGACGAAACAGC [CUCAGC] | 2 ± 0.068 | 1.96 ± 0.01
30 | GCUGUCACCGGUGUAUUACCCUAGUGGUCGACCGGUCUGAUGAGUCUCUCAGGAGACGAAACAGC [CUCAGG] | 1.95 ± 0.041 | 1.88 ± 0.026
31 | GCUGUCACCGGUGUAUUACCCUAGUGGUCGACCGGUCUGAUGAGUCUCUCCCAAGACGAAACAGC [CUCCCA] | 1.991 ± 0.0032 | 1.87 ± 0.046
32 | GCUGUCACCGGUGUAUUACCCUAGUGGUCGACCGGUCUGAUGAGUCUUUCCAUAGACGAAACAGC [UUCCAU] | 1.97 ± 0.074 | 1.882 ± 0.0027
33 | GCUGUCACCGGUGUAUUACCCUAGUGGUCGACCGGUCUGAUGAGUCUUUCCAGAGACGAAACAGC [UUCCAG] | 1.9 ± 0.051 | 1.68 ± 0.064
34 | GCUGUCACCGGUGUAUUACCCUAGUGGUCGACCGGUCUGAUGAGUCUUUCCAAAGACGAAACAGC [UUCCAA] | 1.92 ± 0.097 | 1.8417 ± 0.0007
35 | GCUGUCACCGGUGUAUUACCCUAGUGGUCGACCGGUCUGAUGAGUCUCUCCACAGACGAAACAGC [CUCCAC] | 1.92 ± 0.02 | 1.92 ± 0.036
36 | GCUGUCACCGGUGUAUUACCCUAGUGGUCGACCGGUCUGAUGAGUCUCUCCAAAGACGAAACAGC [CUCCAA] | 1.91 ± 0.047 | 1.869 ± 0.01
37 | GCUGUCACCGGUGUAUUACCCUAGUGGUCGACCGGUCUGAUGAGUCUCUCCAGAGACGAAACAGC [CUCCAG] | 1.89 ± 0.068 | 1.73 ± 0.057
38 | GCUGUCACCGGUGUAUUACCCUAGUGGUCGACCGGUCUGAUGAGUCUAUCAUGAGACGAAACAGC [AUCAUG] | 1.89 ± 0.021 | 1.63 ± 0.062
39 | GCUGUCACCGGUGUAUUACCCUAGUGGUCGACCGGUCUGAUGAGUCUUUCACGAGACGAAACAGC [UUCACG] | 1.93 ± 0.036 | 1.8 ± 0.031
40 | GCUGUCACCGGUGUAUUACCCUAGUGGUCGACCGGUCUGAUGAGUCUUUCACCAGACGAAACAGC [UUCACC] | 1.984 ± 0.015 | 2 ± 0.05
41 | GCUGUCACCGGUGUAUUACCCUAGUGGUCGACCGGUCUGAUGAGUCUUUCACUAGACGAAACAGC [UUCACU] | 1.956 ± 0.0023 | 1.76 ± 0.039
42 | GCUGUCACCGGUGUAUUACCCUAGUGGUCGACCGGUCUGAUGAGUCUGUCCAUAGACGAAACAGC [GUCCAU] | 1.95 ± 0.028 | 1.852 ± 0.0035
